Results as given in publication PMC9982451.

T1: SBDMmo (sulfur binding domain of Type IV REase MmoMcrA) (Morganella morganii)
T1 chain: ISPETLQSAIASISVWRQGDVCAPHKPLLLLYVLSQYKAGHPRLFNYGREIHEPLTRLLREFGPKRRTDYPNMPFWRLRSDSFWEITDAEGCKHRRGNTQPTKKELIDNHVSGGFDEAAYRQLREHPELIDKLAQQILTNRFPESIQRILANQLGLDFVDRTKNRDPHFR


Molecular target: T1, SBDMmo (sulfur binding domain of Type …)
Experiment: EMSA

| Binder | binding result |
| --- | --- |
| PT-dsDNA GGCC-10F/10R (dsDNA, phosphorothioate between G4 and G5 of strand 1 (hemi-PT; stereochemistry not stated)) DNA 1: GTCGGCCCCA DNA 2: TGGGGCCGAC | binds |
| GTCGGCCCCA (ssDNA, phosphorothioate between G4 and G5 (stereochemistry not stated)) [PT-ssDNA GGCC-10F] | no binding |
